In this test the target is avi-tagged SHOC2 (human) (UniProt Q9UQ13). Nature of the test: SPR.
Sequence of avi-tagged SHOC2 (human) (Q9UQ13 whole entry): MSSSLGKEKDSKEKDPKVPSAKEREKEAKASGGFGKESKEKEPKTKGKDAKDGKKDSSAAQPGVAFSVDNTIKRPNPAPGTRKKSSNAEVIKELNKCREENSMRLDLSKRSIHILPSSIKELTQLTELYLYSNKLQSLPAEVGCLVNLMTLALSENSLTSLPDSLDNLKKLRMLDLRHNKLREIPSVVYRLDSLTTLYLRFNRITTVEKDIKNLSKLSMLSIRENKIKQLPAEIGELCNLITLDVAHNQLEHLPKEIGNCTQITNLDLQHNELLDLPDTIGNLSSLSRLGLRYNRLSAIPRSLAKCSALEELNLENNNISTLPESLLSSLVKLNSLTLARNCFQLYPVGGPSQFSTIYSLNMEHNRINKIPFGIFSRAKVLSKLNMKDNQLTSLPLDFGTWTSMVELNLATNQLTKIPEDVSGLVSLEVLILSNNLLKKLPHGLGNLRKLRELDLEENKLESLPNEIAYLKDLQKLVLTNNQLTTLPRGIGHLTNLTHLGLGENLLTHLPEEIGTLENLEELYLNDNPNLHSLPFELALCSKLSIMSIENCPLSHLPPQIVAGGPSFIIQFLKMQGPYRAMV

For “KRAS (1–169) (from UniProt P01116 1-169) (domain or fragment)”, the apparent KD of ternary complex formation with m3 turned out to be 700 nM.

The record behind these values is article PMC10365013.
